In article PMC10406883:

Key:
[1] = Flow cytometry, shSLC3A2 MIA PaCa-2; conditions: glycan lost; control: WT 4F2hc reconstitution in shSLC3A2 MIA PaCa-2
[2] = CHX chase, 4F2hc remaining by western blot
[3] = Western blot, shSLC3A2 PANC-1; conditions: glycan lost
[4] = Confocal: 4F2hc membrane expression, colocalization with xCT; conditions: glycan lost; control: WT 4F2hc reconstitution
[5] = Western blot, PANC-1, BxPC-3, MIA PaCa-2; conditions: glycan changed form; control: Cas9Control cells
[6] = Confocal and flow cytometry, PANC-1; conditions: glycan lost; control: no PNGase F
[7] = Confocal: membrane colocalization of 4F2hc and xCT; conditions: glycan lost; control: no tunicamycin

Protein | other: membrane expression of partner xCT [1] | degradation_or_half_life ([2]; glycan lost) | other: protein levels of xCT, GPX4, B3GNT3 [3] | localisation_or_trafficking [4] | other results
4F2hc (CD98hc): N365Q (protein) parent chain: MELQPPEASIAVVSIPRQLPGSHSEAGVQGLSAGDDSELGSHCVAQTGLELLASGDPLPSASQNAEMIETGSDCVTQAGLQLLASSDPPALASKNAEVTGTMSQDTEVDMKEVELNELEPEKQPMNAASGAAMSLAGAEKNGLVKIKVAEDEAEAAAAAKFTGLSKEELLKVAGSPGWVRTRWALLLLFWLGWLGMLAGAVVIIVRAPRCRELPAQKWWHTGALYRIGDLQAFQGHGAGNLAGLKGRLDYLSSLKVKGLVLGPIHKNQKDDVAQTDLLQIDPNFGSKEDFDSLLQSAKKKSIRVILDLTPNYRGENSWFSTQVDTVATKVKDALEFWLQAGVDGFQVRDIENLKDASSFLAEWQNITKGFSEDRLLIAGTNSSDLQQILSLLESNKDLLLTSSYLSDSGSTGEHTKSLVTQYLNATGNRWCSWSLSQARLLTSFLPAQLLRLYQLMLFTLPGTPVFSYGDEIGLDAAALPGQPMEAPVMLWDESSFPDIPGAVSANMTVKGQSEDPGSLLSLFRRLSDQRSKERSLLHGDFHAFSAGPGLFSYIRHWDQNERFLVVLNFGDVGLSAGLQASDLPASASLPAKADLLLSTQPGREEGSPLELERLKLEPHEGLLLRFPYAA | decreases | decreases | decreases | decreases | 
4F2hc (CD98hc): B3GNT3KO (protein) parent chain: MELQPPEASIAVVSIPRQLPGSHSEAGVQGLSAGDDSELGSHCVAQTGLELLASGDPLPSASQNAEMIETGSDCVTQAGLQLLASSDPPALASKNAEVTGTMSQDTEVDMKEVELNELEPEKQPMNAASGAAMSLAGAEKNGLVKIKVAEDEAEAAAAAKFTGLSKEELLKVAGSPGWVRTRWALLLLFWLGWLGMLAGAVVIIVRAPRCRELPAQKWWHTGALYRIGDLQAFQGHGAGNLAGLKGRLDYLSSLKVKGLVLGPIHKNQKDDVAQTDLLQIDPNFGSKEDFDSLLQSAKKKSIRVILDLTPNYRGENSWFSTQVDTVATKVKDALEFWLQAGVDGFQVRDIENLKDASSFLAEWQNITKGFSEDRLLIAGTNSSDLQQILSLLESNKDLLLTSSYLSDSGSTGEHTKSLVTQYLNATGNRWCSWSLSQARLLTSFLPAQLLRLYQLMLFTLPGTPVFSYGDEIGLDAAALPGQPMEAPVMLWDESSFPDIPGAVSANMTVKGQSEDPGSLLSLFRRLSDQRSKERSLLHGDFHAFSAGPGLFSYIRHWDQNERFLVVLNFGDVGLSAGLQASDLPASASLPAKADLLLSTQPGREEGSPLELERLKLEPHEGLLLRFPYAA |  |  |  |  | expression_or_secretion [5]: increases; degradation_or_half_life ([2]; glycan changed form, control: Cas9Control cells): decreases
4F2hc (CD98hc): 4NQ (protein) parent chain: MELQPPEASIAVVSIPRQLPGSHSEAGVQGLSAGDDSELGSHCVAQTGLELLASGDPLPSASQNAEMIETGSDCVTQAGLQLLASSDPPALASKNAEVTGTMSQDTEVDMKEVELNELEPEKQPMNAASGAAMSLAGAEKNGLVKIKVAEDEAEAAAAAKFTGLSKEELLKVAGSPGWVRTRWALLLLFWLGWLGMLAGAVVIIVRAPRCRELPAQKWWHTGALYRIGDLQAFQGHGAGNLAGLKGRLDYLSSLKVKGLVLGPIHKNQKDDVAQTDLLQIDPNFGSKEDFDSLLQSAKKKSIRVILDLTPNYRGENSWFSTQVDTVATKVKDALEFWLQAGVDGFQVRDIENLKDASSFLAEWQNITKGFSEDRLLIAGTNSSDLQQILSLLESNKDLLLTSSYLSDSGSTGEHTKSLVTQYLNATGNRWCSWSLSQARLLTSFLPAQLLRLYQLMLFTLPGTPVFSYGDEIGLDAAALPGQPMEAPVMLWDESSFPDIPGAVSANMTVKGQSEDPGSLLSLFRRLSDQRSKERSLLHGDFHAFSAGPGLFSYIRHWDQNERFLVVLNFGDVGLSAGLQASDLPASASLPAKADLLLSTQPGREEGSPLELERLKLEPHEGLLLRFPYAA | decreases | decreases | decreases | decreases | 
4F2hc (CD98hc): PNGase F (protein) parent chain: MELQPPEASIAVVSIPRQLPGSHSEAGVQGLSAGDDSELGSHCVAQTGLELLASGDPLPSASQNAEMIETGSDCVTQAGLQLLASSDPPALASKNAEVTGTMSQDTEVDMKEVELNELEPEKQPMNAASGAAMSLAGAEKNGLVKIKVAEDEAEAAAAAKFTGLSKEELLKVAGSPGWVRTRWALLLLFWLGWLGMLAGAVVIIVRAPRCRELPAQKWWHTGALYRIGDLQAFQGHGAGNLAGLKGRLDYLSSLKVKGLVLGPIHKNQKDDVAQTDLLQIDPNFGSKEDFDSLLQSAKKKSIRVILDLTPNYRGENSWFSTQVDTVATKVKDALEFWLQAGVDGFQVRDIENLKDASSFLAEWQNITKGFSEDRLLIAGTNSSDLQQILSLLESNKDLLLTSSYLSDSGSTGEHTKSLVTQYLNATGNRWCSWSLSQARLLTSFLPAQLLRLYQLMLFTLPGTPVFSYGDEIGLDAAALPGQPMEAPVMLWDESSFPDIPGAVSANMTVKGQSEDPGSLLSLFRRLSDQRSKERSLLHGDFHAFSAGPGLFSYIRHWDQNERFLVVLNFGDVGLSAGLQASDLPASASLPAKADLLLSTQPGREEGSPLELERLKLEPHEGLLLRFPYAA |  |  |  |  | localisation_or_trafficking [6]: abolishes
4F2hc (CD98hc): tunicamycin (TM) (protein) parent chain: MELQPPEASIAVVSIPRQLPGSHSEAGVQGLSAGDDSELGSHCVAQTGLELLASGDPLPSASQNAEMIETGSDCVTQAGLQLLASSDPPALASKNAEVTGTMSQDTEVDMKEVELNELEPEKQPMNAASGAAMSLAGAEKNGLVKIKVAEDEAEAAAAAKFTGLSKEELLKVAGSPGWVRTRWALLLLFWLGWLGMLAGAVVIIVRAPRCRELPAQKWWHTGALYRIGDLQAFQGHGAGNLAGLKGRLDYLSSLKVKGLVLGPIHKNQKDDVAQTDLLQIDPNFGSKEDFDSLLQSAKKKSIRVILDLTPNYRGENSWFSTQVDTVATKVKDALEFWLQAGVDGFQVRDIENLKDASSFLAEWQNITKGFSEDRLLIAGTNSSDLQQILSLLESNKDLLLTSSYLSDSGSTGEHTKSLVTQYLNATGNRWCSWSLSQARLLTSFLPAQLLRLYQLMLFTLPGTPVFSYGDEIGLDAAALPGQPMEAPVMLWDESSFPDIPGAVSANMTVKGQSEDPGSLLSLFRRLSDQRSKERSLLHGDFHAFSAGPGLFSYIRHWDQNERFLVVLNFGDVGLSAGLQASDLPASASLPAKADLLLSTQPGREEGSPLELERLKLEPHEGLLLRFPYAA |  |  |  |  | localisation_or_trafficking [7]: decreases; degradation_or_half_life ([2]; glycan lost, control: no tunicamycin): decreases
4F2hc (CD98hc): 122-311del B3GNT3 (protein) parent chain: MELQPPEASIAVVSIPRQLPGSHSEAGVQGLSAGDDSELGSHCVAQTGLELLASGDPLPSASQNAEMIETGSDCVTQAGLQLLASSDPPALASKNAEVTGTMSQDTEVDMKEVELNELEPEKQPMNAASGAAMSLAGAEKNGLVKIKVAEDEAEAAAAAKFTGLSKEELLKVAGSPGWVRTRWALLLLFWLGWLGMLAGAVVIIVRAPRCRELPAQKWWHTGALYRIGDLQAFQGHGAGNLAGLKGRLDYLSSLKVKGLVLGPIHKNQKDDVAQTDLLQIDPNFGSKEDFDSLLQSAKKKSIRVILDLTPNYRGENSWFSTQVDTVATKVKDALEFWLQAGVDGFQVRDIENLKDASSFLAEWQNITKGFSEDRLLIAGTNSSDLQQILSLLESNKDLLLTSSYLSDSGSTGEHTKSLVTQYLNATGNRWCSWSLSQARLLTSFLPAQLLRLYQLMLFTLPGTPVFSYGDEIGLDAAALPGQPMEAPVMLWDESSFPDIPGAVSANMTVKGQSEDPGSLLSLFRRLSDQRSKERSLLHGDFHAFSAGPGLFSYIRHWDQNERFLVVLNFGDVGLSAGLQASDLPASASLPAKADLLLSTQPGREEGSPLELERLKLEPHEGLLLRFPYAA |  |  |  |  | degradation_or_half_life ([2]; glycan changed form, control: 122-311OE (active B3GNT3) in B3GNT3KO cells): decreases
